# Assay: soluble on expression in E. coli; label from the status in PepcDB or PDB records
row,Sequence,soluble on expression in E. coli
1,MGSDKIHHHHHHMMAEALQRENPSGFEGSVAGLPLTDVIQLKGQNRFSGCIAVEYRERQGMIFFRDGDIIHAEQGKLMGEMALYEIIRWPGGRFNIQPKVTTTSRTIQQSISFLLLEAHRLMDEEQAAVRADEGTRREEAAAPAAVQNRMSAVAERIVRIAGVSYAVLMKKDGTPLEDDSFEAEVLSAKGMSLAGIGSRLGELFGLDEVKSAAVHARGKQILLFEAKNHYVSIAVRGDSSLAHVENEIRSTFAGRK,not soluble
2,LALHKVIMVGSGGVGKSALTLQFMYDEFVEDYEPTKADSYRKKVVLDGEEVQIDILDTAGLEDYAAIRDNYFRSGEGFLLVFSITEHESFTATAEFREQILRVKAEEDKIPLLVVGNKSDLEERRQVPVEEARSKAEEWGVQYVETSAKTRANVDKVFFDLMREIRTKKMSENK,soluble
3,MGSDKIHHHHHHKFIIFTYKDSYINQSATFHSDRTNLNIKREKCDFSFFNISIGHKLSLSLQNLIINPFNYMAFTNNIMIVRHRLLTELVKLWKNGELTTDKIDRLPLELSPRRSKHAGRCCVHKERAVWKYKSLPLLGLDMDDETDELTPLSEYAARSIERANNGKPKDNIMCVIDEACSACVQINYEITDLCRGCTARSCQYNCPKGAVHVHADTGKAWIDHDTCISCGICHKSCPYHAIVYIPVPCEESCPVKAISKDEHGIEHIDENKCIYCGKCMNACPFGAIFEISQTFDVLQRIRKGEQVVAIVAPSILGQFSTTIEQVYGAFRQIGFTDIIEVAQGAMSTVEHEAHELIEKLEEGQKFMTTSCCPSYIELVNKYIPDMKKYVSGTGSPMYYAARIAKEKYPDAKIVFVGPCVAKRKEAQRDEAVDFVMTFEEISSIFDAFEINLEIVQPYAMEFSSVREAHGFAQAGGVMGAVKAFLKMEADKINAIQVSDLNKKNIGTLRAYAKSGKAPGQFIEVMACEGGCITGPSTHSGSNNGKRQLVQELAKQKKTY,not soluble
4,HHHHHSSGLVPRGSHMTNPAYFPQLSQLDVSGEMESTYEDIRLTLRVPWVAFGCRVLATFPGYLPLAWRRSAEALITRYAEQAADELRERSLLNIGPLPNLKERLYAAGFDDGEIEKVRRVLYAFNYGNPKYLLLITALSESMQMRPVGGAEVSSELRASIPKGHPKGMDPLLPLVDATKASTEVQGLLKRVADLHYHHGPASDFQALANWPKVLQIVTDEVLAPVARTEQYDAKSRELVTRARELVRGLPGSAGVQRSELMSMLTPNELAGLTGVLFMYQRFIADITISIIHITECLDGAEAASKSPFPI,soluble
5,MSLKFMYSALLGNPVEHSISDELFEYLNHNIGVLDEYKHKKILVDSVCLEDKIKHLINDPKCIGLNITLPYKREVMRYIDNLDRVAEITGSVNNIYKSGNIITGTNTDWKGIYNTLVFFNISHITKCCVLGTGGTARAAIFALQKLQISPTVVYREPISENTRSLIKSFPDLKYITYKELADQQILNDMEIIINTTPVGMINYEESLPINFDHLDNVNYKDKYFMDVVFNPLHTKLHEYFGKKGAKIIDGLWVLIFQGIEAFSLWSDKINDGKYFFSEGHHHHHH,not soluble
6,MKDKYLIIDGYNMIGQSPELGKIAKDNLQEAREQLLDAIANYNAVVADEIVCVFDAYEQSGIEREYIYHGVKTVFTKEKETADSYIERYVYNLYNKHTTHITVVTSDMSEQHAIFGAGAYRVSSREMWRDLRENEITVSKSLDDFTESKPRTRISLSNDVLAEFEKIRRGNHNKDLEHHHHHH,not soluble
7,IEKNQIDMANGQELLISESLAVSQATTTFIDQLRILAPFGTDNTVPTFVFKEITPTQIRQIGADNAHLKFQMNQEGAQLDAIAFQMGPQADELAQGTADVAGQLSINEWNGRKKPQ,not soluble
8,MHKIRSHSKYIIPRLNKIVEEGDADAVGFEFPVESFKFLE,not soluble
9,MGLVDYAGSESESDEEMETQQKNSLAPQNQQLVDDEAFFDNTEKSSSPNMNKEDVLEELVKPKEWEVKLAEKARRKLEKKALKKAQKEERKKEKKLAKKAMKVEKIPKIGGGIQKAKGKVIISAFGALAGITGENSSDDSDNEGAAVATVKPKLGNSFLSNLPAPKGRDNRSDGANVFDKSMVPHSVSKKATPAAAPVFKPAPAPKLPDDSDDDDDGPTDFFGFSSAPTRKESEIPSEIPYMTMNSSMDVVGPSRPDEGMDPRQMYEMPEEEEDVQEGPSASNAWLHRKINDEQAHKLLMRFSHDIGQEERRSINEMANSIVDVNVDDALGPDVKTNIIKNLGHRAFVEATSAPLPQVQTQGQMSRRKHQITYLASLAVSREEQLKDQWADQKQSKRMARQKYGF,not soluble

# — the DeepSol protein solubility set
